In publication PMC7465668:

Biological target: S-enantioselective imine reductase from Mycobacterium smegmatis (S-IRED-Ms) (Mycobacterium smegmatis)
Experiment: crystal structure; holo-S-IRED-Ms co-crystallised with 5 mM NADPH; 10 mg/mL protein, 20% (w/v) PEG 3350, 0.2 M sodium formate, sitting drop, 4 °C; 1.55 Å, five monomers in the asymmetric unit

stoichiometry N: 2
Substance: S-enantioselective imine reductase from Mycobacterium smegmatis (S-IRED-Ms) (enzyme)
